Data from US20220073599A1 (Hoffmann-La Roche, published 2022).
Positions count from the first letter of the chain named. Values belong to the binder of their own block, whether it stands above or below them.

What was measured:
[1] = target: T1, human VEGFA-121-His (human, UniProt P15692 181-395); test: SPR, VEGF-A121-His captured by anti-His antibody, Fab injected, single cycle kinetics, 1:1 fit
T1 construct: Prepared in-house; not shown: His tag
T1 sequence: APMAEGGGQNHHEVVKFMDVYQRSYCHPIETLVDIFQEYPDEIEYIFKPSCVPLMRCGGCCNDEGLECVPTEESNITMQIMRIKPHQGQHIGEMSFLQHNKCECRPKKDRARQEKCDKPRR
Description: An anti-His capturing antibody (GE Healthcare 28995056) was immobilized to a Series S Sensor Chip C1 (GE Healthcare BR100535) using standard amine coupling chemistry resulting in a surface density of approximately 600 resonance units (RU). As running and dilution buffer, HBS-P+ (10 mM HEPES, 150 mM NaCl pH 7.4, 0.05% Surfactant P20) was used. […] A dilution series of the tested antibody (3.7-300 nM, 1:3 dilution) was successively injected for 60 s each, dissociation was monitored for 3600 s at a flow rate of 30 μl/min (single cycle kinetics). The surface was regenerated by injecting 10 mM Glycine pH 1.5 for 60 s at a flow of 5 μl/min. […] Curve fitting was performed using the 1:1 Langmuir binding model within the Biacore® evaluation software.
(§1) Binding kinetics to human VEGF-A and human ANG2 for the candidate antibodies were assessed as described above using the indicated Fab fragments (amino acid sequence as illustrated in Table 4).

[2] = target: T1, human VEGFA-121-His; test: KinExA equilibrium titration in solution, constant VEGFA-121-His
Description: All KinExA® experiments were performed at room temperature (RT) using PBS pH 7.4 with 0.01% BSA and 0.01% Tween® 20 (BioRad, #161-0781) as running buffer. […] A flow rate of 0.25 ml/min was used. […] Antigen-antibody complexes were incubated at RT for at least 8 h to allow equilibrium to be reached. […] Each sample was measured in duplicates for all equilibrium experiments. The KD was obtained from non-linear regression analysis of the data using a one-site homogeneous binding model contained within the KinExA® software (Version 4.0.11) using the “standard analysis” method. The software calculates the KD and determines the 95% confidence interval by fitting the data points to a theoretical KD curve. The 95% confidence interval is given as KD low and KD high.
as §1

[3] = target: T2, human VEGFA-121 (human, UniProt P15692 181-395); test: cell-based or functional assay
T2 sequence: T1 sequence

[4] = target: T3, human Ang2-RBD (human, UniProt O15123 275-496, limits assumed); test: SPR, Fab captured by anti-Fab antibody; 2) Ang2-RBD alone, then buffer; final signal in % of the sum of the single signals
T3 construct: also called Human ANG2 (SPR); Angiopoietin 2-RBD
T3 sequence: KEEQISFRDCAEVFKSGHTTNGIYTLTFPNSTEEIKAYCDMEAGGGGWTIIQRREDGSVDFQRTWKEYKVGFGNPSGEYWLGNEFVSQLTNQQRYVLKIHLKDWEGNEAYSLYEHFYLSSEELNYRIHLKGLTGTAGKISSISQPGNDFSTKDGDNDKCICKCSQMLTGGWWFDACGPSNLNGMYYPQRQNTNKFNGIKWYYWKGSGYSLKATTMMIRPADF
Description: (§2) The bispecific Fab was captured by injecting a 6.5 μg/ml solution for 60 sec at a flow of 5 μl/min. Independent binding of each ligand to the bispecific Fab was analysed by determining the active binding capacity for each ligand, either added sequentially or simultaneously (flow of 10 μl/min): [0359] […] [0360] 2) Injection of human Ang2 with a concentration of 5 μg/ml for 60 sec (identifies single binding of the antigen) [0361] […] [0362] […] [0363]
(§3) Independent binding of candidate antibodies to human VEGF-A and human ANG2 was analysed by SPR as described above in the “Materials & general methods” section.

[5] = target: T2, human VEGFA-121; test: SPR, Fab captured by anti-Fab antibody; 4) Ang2-RBD first, then VEGFA-121 (binding of VEGFA-121 in the presence of Ang2); final combined signal of both antigens
Description: as §2, §3

[6] = target: T4, ANG2 (human, UniProt O15123 19-496, limits assumed); test: cell-based or functional assay
T4 sequence: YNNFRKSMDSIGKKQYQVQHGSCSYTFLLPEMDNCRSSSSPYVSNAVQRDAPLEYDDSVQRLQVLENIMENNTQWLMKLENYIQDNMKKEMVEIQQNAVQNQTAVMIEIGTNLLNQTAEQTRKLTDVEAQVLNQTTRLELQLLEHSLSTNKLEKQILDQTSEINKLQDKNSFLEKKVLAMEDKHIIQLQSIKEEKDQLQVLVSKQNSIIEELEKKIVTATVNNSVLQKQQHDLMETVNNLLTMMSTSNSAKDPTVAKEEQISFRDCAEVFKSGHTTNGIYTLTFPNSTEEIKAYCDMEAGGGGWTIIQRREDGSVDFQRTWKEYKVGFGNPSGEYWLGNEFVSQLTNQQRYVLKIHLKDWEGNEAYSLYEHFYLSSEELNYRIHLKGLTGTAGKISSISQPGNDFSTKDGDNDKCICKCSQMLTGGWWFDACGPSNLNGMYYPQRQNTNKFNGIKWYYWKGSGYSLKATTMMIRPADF

[7] = target: T3, human Ang2-RBD; test: SPR, Fab captured by anti-Fab antibody; 3) VEGFA-121 first, then Ang2-RBD (binding of Ang2 in the presence of VEGFA-121); final combined signal of both antigens
Description: as §2, §3

kon [1]: 737000 M⁻¹ s⁻¹
Kd [2]: 0.0114 nM
IC50, Reporter Gene Assay (Hek_NFAT_KDR_Luc cells stimulated with VEGF-A121, luminescence) [3]: 1.09 nM
Signal [%] [4]: 50%
Signal [%] [5]: 90%
IC50, pTie2-Assay (Tie2 phosphorylation in Hek293 cells expressing Tie2, stimulated with Ang-2) [6]: 7 nM
Signal [%] [7]: 85%
B1: bispecific anti-VEGF-A/anti-ANG2 Fab fragment P1AA0902 (Fab, V domains shown)
VH: DDHLVESGGGLVKPGGSLRLSCATADFFEYDDMSWVRQAPGKGLEWVGSISGRGDHKYLNTKFIGRFTISRDDSKNTLYLQMNSLRAEDTAVYYCARDVGFFDWWGQGTLVTVSS
VL: AIYMHQEPSSLSASVGDRVTITCHGSYWLNSELAWYQQKPGKAPKLLIFDGDFKVFDVPSRFSGSGSHEDYTLTISSLQPEDFATYYCQQYRYHPYTFGHGTKVEIKR
notes: Bispecific Fab with two paratopes in one VH/VL pair

kon [1]: 1.66e+06 M⁻¹ s⁻¹
Kd [2]: 0.0109 nM
Signal [%] [4]: 50%
Signal [%] [5]: 91%
Signal [%] [7]: 82%
B2: bispecific anti-VEGF-A/anti-ANG2 Fab fragment P1AA8906 (Fab, V domains shown)
VH: DFQLVESGGGLVKPGGSLRLSCAASYEFEYDDMSWVRQAPGKGLEWVGSISPKGGSTYYNTKFIGRFTISRDNSKNTLYLQMNSLRAEDTAVYYCARDVGFFDMWGQGTLVTVSS
VL: B1 VL with N30S, S31N, E32Y, G51A, D52R, F53W, K54L, F56H, D57G
notes: Bispecific Fab with two paratopes in one VH/VL pair (DutaFab); CH1 and Ckappa

kon [1]: 727000 M⁻¹ s⁻¹
Kd [2]: 0.00385 nM
IC50, Reporter Gene Assay (Hek_NFAT_KDR_Luc cells stimulated with VEGF-A121, luminescence) [3]: 1.07 nM
Signal [%] [4]: 50%
Signal [%] [5]: 92%
IC50, pTie2-Assay (Tie2 phosphorylation in Hek293 cells expressing Tie2, stimulated with Ang-2) [6]: 10 nM
Signal [%] [7]: 85%
B3: bispecific anti-VEGF-A/anti-ANG2 Fab fragment P1AD9820 (Fab, V domains shown)
VH: B1 VH with D1S, D2E, G52P, R53K
VL: B1 VL with L33V, F56Y, D57E
notes: Bispecific Fab with two paratopes in one VH/VL pair; also called P1AD9820 Fab
